# Experimental data: patent US20240132578A1
# Legend:
# Test in all cases: cell-based or functional assay
# [1] = target: HIV-1 92UG024 envelope protein (Env) on pseudovirus (HIV-1)
# [2] = target: HIV-1 Env of isolate MGRM-F1-013 (pseudovirus) (HIV-1)
# HIV-1 NL43 Env (HIV-1) = target: HIV-1 NL43 Env (HIV-1)
# [3] = target: HIV-1 envelope glycoprotein (Env) of isolate 92UG037, subtype A (HIV-1)
# [4] = target: HIV-1 envelope glycoprotein (Env) of isolate MG RM-A-010, subtype A (HIV-1)
# [5] = target: HIV-1 envelope glycoprotein (Env) of isolate MGRM-AE-001, subtype AE (HIV-1)
# [6] = target: HIV-1 envelope glycoprotein (Env) of isolate MGRM-Chronic-B-023, on pseudovirus (HIV-1)
# [7] = target: HIV-1 Env of pseudovirus MGRM-D-024 (HIV-1)
# [8] = target: HIV-1 Env of pseudovirus MGRM-F1-004 (HIV-1)
# [9] = target: HIV-1 envelope glycoprotein (Env) of isolate MG RM-AG-001 (HIV-1)
# [10] = target: HIV-1 envelope glycoprotein (Env) of isolate MG RM-AG-002 (HIV-1)
# [11] = target: HIV-1 Env of isolate 93RW029 (clade A pseudovirus) (HIV-1)
# [12] = target: HIV-1 Env of isolate APV_13, clade B (HIV-1)
# [13] = target: HIV-1 Env of isolate MGRM-A-002 (clade A pseudovirus) (HIV-1)
# [14] = target: HIV-1 Env of isolate MGRM-A-011 (clade A pseudovirus) (HIV-1)
# [15] = target: HIV-1 Env of isolate MGRM-Chronic-B-002, clade B (HIV-1)
# [16] = target: HIV-1 Env of isolate MGRM-D-002 (clade D pseudovirus) (HIV-1)
# [17] = target: HIV-1 Env of isolate MGRM-D-003 (clade D pseudovirus) (HIV-1)
# [18] = target: HIV-1 Env of isolate MGRM-D-004 (clade D pseudovirus) (HIV-1)
# [19] = target: HIV-1 Env of pseudovirus MGRM-F1-006 (clade F) (HIV-1)
# [20] = target: HIV-1 Env of pseudovirus MGRM-F1-022 (clade F) (HIV-1)
# [21] = target: HIV-1 Env of pseudovirus MGRM-G-025 (HIV-1)
# [22] = target: HIV-1 MGRM-G-004 Env (pseudovirus) (HIV-1)
# [23] = target: HIV-1 envelope glycoprotein (Env) of isolate MGRM-C-010 (HIV-1)
# [24] = target: HIV-1 envelope glycoprotein (Env) of isolate MGRM-C-024 (HIV-1)
# [25] = target: HIV-1 Env of isolate 92UG001 (HIV-1)
# [26] = target: HIV-1 Env of isolate MGRM-C-015 (subtype C), on pseudovirus (HIV-1)
# [27] = target: HIV-1 Env of isolate MGRM-G-004 (subtype G) (HIV-1)
# [28] = target: HIV-1 Env of isolate MGRM-G-011 (subtype G) (HIV-1)
# [29] = target: HIV-1 Env of isolate MGRM-G-013 (subtype G) (HIV-1)
# [30] = target: HIV-1 Env of pseudovirus isolate JR-FL (clade B) (HIV-1)
# [31] = target: HIV-1 Env of isolate 92UG114 (pseudovirus) (HIV-1)
# [32] = target: HIV-1 Env of isolate MGRM-A-007 (subtype A) (HIV-1)
# [33] = target: HIV-1 Env of isolate MGRM-A-012 (subtype A) (HIV-1)
# [34] = target: HIV-1 Env of isolate MGRM-D-005 (pseudovirus) (HIV-1)
# [35] = target: HIV-1 Env of isolate MGRM-D-019 (pseudovirus) (HIV-1)
# [36] = target: HIV-1 Env of isolate MGRM-D-021 (pseudovirus) (HIV-1)
# [37] = target: HIV-1 Env of isolate MGRM-F1-016 (HIV-1)
# [38] = target: HIV-1 Env of isolate MGRM-F1-018 (HIV-1)
# [39] = target: HIV-1 Env of pseudovirus isolate MGRM-C-006 (clade C) (HIV-1)
# [40] = target: HIV-1 Env of pseudovirus isolate MGRM-C-009 (clade C) (HIV-1)
# [41] = target: HIV-1 JR-CSF Env I424A (HIV-1 (isolate JR-CSF)) (UniProt P20871)
# [42] = target: HIV-1 94UG103 Env (HIV-1)
# [43] = target: HIV-1 Env of isolate MGRM-AG-001 (pseudovirus) (HIV-1)
# [44] = target: HIV-1 Env of isolate MGRM-AG-013 (pseudovirus) (HIV-1)
# Sequence of PGT-145 (4995_P16) (antibody) (VH): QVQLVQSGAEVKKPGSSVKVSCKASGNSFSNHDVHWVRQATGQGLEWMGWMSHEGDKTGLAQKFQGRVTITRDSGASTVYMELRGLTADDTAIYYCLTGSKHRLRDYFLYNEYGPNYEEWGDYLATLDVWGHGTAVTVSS
# Sequence of PGT-145 (4995_P16) (antibody) (VL): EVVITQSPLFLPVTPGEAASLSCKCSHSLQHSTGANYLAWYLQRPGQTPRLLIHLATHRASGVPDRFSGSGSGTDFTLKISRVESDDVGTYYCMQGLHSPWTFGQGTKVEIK
# Sequence of 5345_I01 (PGT-137) (antibody) (VH): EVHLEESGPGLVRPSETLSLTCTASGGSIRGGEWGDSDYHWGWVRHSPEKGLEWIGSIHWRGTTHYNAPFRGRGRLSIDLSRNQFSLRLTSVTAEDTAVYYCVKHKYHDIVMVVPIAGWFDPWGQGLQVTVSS
# Sequence of 5345_I01 (PGT-137) (antibody) (VL): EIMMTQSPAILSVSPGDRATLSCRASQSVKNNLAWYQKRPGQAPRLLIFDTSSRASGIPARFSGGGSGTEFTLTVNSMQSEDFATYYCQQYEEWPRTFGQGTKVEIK
# Sequence of PGT-141 (4964_G22; 4993_K13) (antibody) (VH): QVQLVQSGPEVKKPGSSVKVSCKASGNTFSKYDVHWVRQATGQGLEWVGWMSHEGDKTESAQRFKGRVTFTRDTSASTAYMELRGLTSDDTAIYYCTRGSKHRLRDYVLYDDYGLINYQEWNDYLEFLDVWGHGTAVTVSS
# Sequence of PGT-141 (4964_G22; 4993_K13) (antibody) (VL): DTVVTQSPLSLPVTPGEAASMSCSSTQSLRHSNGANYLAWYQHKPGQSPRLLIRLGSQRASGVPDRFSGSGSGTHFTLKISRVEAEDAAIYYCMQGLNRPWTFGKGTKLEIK
# Sequence of PGT-144 (4970_K22) (antibody) (VH): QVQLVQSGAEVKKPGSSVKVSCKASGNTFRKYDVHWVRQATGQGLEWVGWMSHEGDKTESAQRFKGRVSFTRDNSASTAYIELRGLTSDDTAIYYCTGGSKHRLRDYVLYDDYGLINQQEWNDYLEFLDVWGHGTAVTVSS
# Sequence of PGT-144 (4970_K22) (antibody) (VL): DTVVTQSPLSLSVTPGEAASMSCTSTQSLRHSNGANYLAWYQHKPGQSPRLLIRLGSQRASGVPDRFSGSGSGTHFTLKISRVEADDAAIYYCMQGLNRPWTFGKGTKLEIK
substance,measurement,setting,value
4838_L06 (PGT-121) (antibody),"IC50 (ug/mL), pseudovirus neutralization",[1],> 10 µg/mL
same,"IC50 (µg/mL), pseudovirus neutralization",[2],0.083 µg/mL
same,"IC50, pseudovirus neutralization",HIV-1 NL43 Env (HIV-1),> 10 µg/mL
same,"IC50, pseudovirus neutralization",[3],0.031 µg/mL
same,"IC50, pseudovirus neutralization",[4],2.44 µg/mL
same,"IC50, pseudovirus neutralization",[5],> 50 µg/mL
same,"IC50, pseudovirus neutralization",[6],0.005 µg/mL
PGT-141 (4964_G22; 4993_K13) (antibody),"IC50, pseudovirus neutralization",[7],> 50 µg/mL
same,"IC50, pseudovirus neutralization",[8],0.021 µg/mL
same,IC50,[9],18 µg/mL
same,IC50,[10],0.049 µg/mL
PGT-145 (4995_P16) (antibody),"IC50, pseudovirus neutralization",[7],0.224 µg/mL
same,"IC50, pseudovirus neutralization",[8],0.361 µg/mL
same,IC50,[9],0.164 µg/mL
same,IC50,[10],0.056 µg/mL
1495_C14 (PGC14) (antibody),"IC50 (µg/ml), pseudovirus neutralization",[11],42 µg/mL
same,"IC50 (µg/ml), pseudovirus neutralization",[12],> 50 µg/mL
same,"IC50 (µg/ml), pseudovirus neutralization",[13],> 50 µg/mL
same,"IC50 (µg/ml), pseudovirus neutralization",[14],> 50 µg/mL
same,"IC50 (µg/ml), pseudovirus neutralization",[15],> 50 µg/mL
same,"IC50, pseudovirus neutralization",[16],29 µg/mL
same,"IC50, pseudovirus neutralization",[17],> 50 µg/mL
same,"IC50, pseudovirus neutralization",[18],> 50 µg/mL
same,IC50,[19],> 50 µg/mL
same,IC50,[20],> 50 µg/mL
same,"IC50 (µg/ml), pseudovirus neutralization",[21],> 50 µg/mL
same,"IC50 (µg/ml), pseudovirus neutralization",[22],> 50 µg/mL
same,"IC50 (µg/ml), pseudovirus neutralization",[23],> 50 µg/mL
same,"IC50 (µg/ml), pseudovirus neutralization",[24],> 50 µg/mL
VRC01 (antibody),"IC50 (µg/mL), pseudovirus neutralization",[25],1.16 µg/mL
same,"IC50, single-round pseudovirus neutralization",[26],1.57 µg/mL
same,"IC50 (µg/mL), pseudovirus neutralization",[27],> 50 µg/mL
same,"IC50 (µg/mL), pseudovirus neutralization",[28],0.065 µg/mL
same,"IC50 (µg/mL), pseudovirus neutralization",[29],0.553 µg/mL
same,"IC50, pseudovirus neutralization",[7],0.366 µg/mL
same,"IC50, pseudovirus neutralization",[8],0.305 µg/mL
same,"IC50, pseudovirus neutralization",[30],0.034 µg/mL
same,IC50,[9],0.228 µg/mL
same,IC50,[10],0.95 µg/mL
4995_P16 (PGT-145) (antibody),"IC50 (µg/mL), pseudovirus neutralization",[25],> 50 µg/mL
same,"IC50, single-round pseudovirus neutralization",[26],0.12 µg/mL
same,"IC50 (µg/mL), pseudovirus neutralization",[27],> 50 µg/mL
same,"IC50 (µg/mL), pseudovirus neutralization",[28],0.028 µg/mL
same,"IC50 (µg/mL), pseudovirus neutralization",[29],> 50 µg/mL
same,"IC50, pseudovirus neutralization",[30],30.4 µg/mL
5136_H01 (PGT-131) (antibody),"IC50 (µg/mL), pseudovirus neutralization",[31],> 50 µg/mL
same,"IC50, pseudovirus neutralization",[32],> 50 µg/mL
same,"IC50, pseudovirus neutralization",[33],> 50 µg/mL
same,"IC50 (µg/mL), pseudovirus neutralization",[34],> 50 µg/mL
same,"IC50 (µg/mL), pseudovirus neutralization",[35],> 50 µg/mL
same,"IC50 (µg/mL), pseudovirus neutralization",[36],0.106 µg/mL
same,"IC50 (µg/mL), pseudovirus neutralization",[37],> 50 µg/mL
same,"IC50 (µg/mL), pseudovirus neutralization",[38],> 50 µg/mL
same,"IC50, pseudovirus neutralization",[39],0.611 µg/mL
same,"IC50, pseudovirus neutralization",[40],> 50 µg/mL
same,Fold IC50 increase relative to wild-type (pseudovirus neutralization),[41],4.8 fold
4877_D15 (PGT-122) (antibody),"IC50 (ug/mL), pseudovirus neutralization",[1],> 10 µg/mL
same,"IC50, pseudovirus neutralization",[42],1.46 µg/mL
same,"IC50 (µg/mL), pseudovirus neutralization",[43],14.5 µg/mL
same,"IC50 (µg/mL), pseudovirus neutralization",[44],0.521 µg/mL
same,"IC50 (µg/mL), pseudovirus neutralization",[2],0.152 µg/mL
same,"IC50, pseudovirus neutralization",HIV-1 NL43 Env (HIV-1),> 10 µg/mL
same,"IC50, pseudovirus neutralization",[3],0.068 µg/mL
same,"IC50, pseudovirus neutralization",[4],2.51 µg/mL
same,"IC50, pseudovirus neutralization",[5],> 50 µg/mL
same,"IC50, pseudovirus neutralization",[6],0.01 µg/mL
PGT-144 (4970_K22) (antibody),"IC50, pseudovirus neutralization",[7],> 50 µg/mL
same,"IC50, pseudovirus neutralization",[8],0.105 µg/mL
same,IC50,[9],> 50 µg/mL
same,IC50,[10],7.78 µg/mL
5345_I01 (PGT-137) (antibody),"IC50 (µg/mL), pseudovirus neutralization",[31],> 50 µg/mL
same,"IC50, pseudovirus neutralization",[32],> 50 µg/mL
same,"IC50, pseudovirus neutralization",[33],> 50 µg/mL
same,"IC50 (µg/mL), pseudovirus neutralization",[34],> 50 µg/mL
same,"IC50 (µg/mL), pseudovirus neutralization",[35],> 50 µg/mL
same,"IC50 (µg/mL), pseudovirus neutralization",[36],> 50 µg/mL
same,"IC50 (µg/mL), pseudovirus neutralization",[37],> 50 µg/mL
same,"IC50 (µg/mL), pseudovirus neutralization",[38],> 50 µg/mL
same,"IC50, pseudovirus neutralization",[39],> 50 µg/mL
same,"IC50, pseudovirus neutralization",[40],> 50 µg/mL
